In article PMC5318940:

Experiments:
[1] = target: histone H2A (bovine (calf thymus)) (UniProt P0C0S9)
[2] = target: M1 protein on the surface of live GAS M1T1 5448 wild type (group A Streptococcus (endogenous in strain M1T1 5448)) (UniProt Q99XV0); assay: immunogold transmission electron microscopy; bacteria with 31.25 μg/mL histone H2A, 30 min at 37 °C, washed, fixed with 2% PFA; anti-histone H2A antibody and 15 nm immunogold secondary antibody; particles counted on >20 bacteria

Substance | histone MIC for the GAS Δemm1 mutant with exogenous 10 μM recombinant NT fragment (rNT) [1] [fold] | gold particles per bacterium (gold-particles per bacterium) [2]
M1 protein fragment A+B (residues 42-194), recombinant NT fragment (from UniProt Q99XV0 42-194) (domain or fragment) | 2 | –
histone H2A (from UniProt P0C0S9 1-130) (natural protein) | – | > 30
